# Measurements: the Human Domainome abundance scans (Beltran et al. 2025)
# ± gives the uncertainty stated by the source.
# B1: POU domain, class 4, transcription factor 2, residues 256 to 327; numbered along this chain, Q12837 (parent)
# chain: RDLEAFAERFKQRRIKLGVTQADVGSALANLKIPGVGSLSQSTICRFESLTLSHNNMIALKPILQAWLEEAE
# Variants of: B1
# Assay: abundance fitness (aPCA) (normalised: wild type 0, dead -1); higher = more abundant; growth selection in yeast, the domain comes from the species named
# Conditions: Homo sapiens
row,Variant,abundance fitness
1,T43G,-0.792 ± 0.1
2,T43S,-0.353 ± 0.078
3,T43C,-0.232 ± 0.096
4,T43V,-0.01 ± 0.064
5,T43M,-0.068 ± 0.16
6,T43A,-0.271 ± 0.074
7,T43W,-0.282 ± 0.092
8,T43L,-0.053 ± 0.051
9,T43D,-0.114 ± 0.13
10,T43I,0.207 ± 0.23
11,T43K,-0.624 ± 0.17
12,T43F,-0.289 ± 0.21
13,T43R,-0.632 ± 0.072
14,T43E,-0.574 ± 0.3
15,T43Q,-0.452 ± 0.17
16,K61L,-0.148 ± 0.07
17,K61Q,-0.047 ± 0.097
18,K61R,0.049 ± 0.071
19,K61E,-0.32 ± 0.095
20,K61I,-0.328 ± 0.099
21,K61T,-0.02 ± 0.1
22,K61M,0.037 ± 0.093
23,K61H,-0.137 ± 0.12
24,K61G,-0.47 ± 0.1

row,Variant,abundance fitness
1,K61S,-0.42 ± 0.087
2,K61F,-0.38 ± 0.16
3,K61W,-0.125 ± 0.08
4,K61P,-0.802 ± 0.17
5,K61N,-0.393 ± 0.21
6,K61A,-0.178 ± 0.07
7,S53H,-0.376 ± 0.15
8,S53K,-0.738 ± 0.35
9,S53L,-0.729 ± 0.1
10,S53A,-0.163 ± 0.046
11,S53M,-0.371 ± 0.23
12,S53G,-0.102 ± 0.059
13,S53Y,-0.556 ± 0.18
14,S53N,-0.605 ± 0.29
15,S53E,-0.066 ± 0.12
16,S53D,0.043 ± 0.1
17,S53V,-0.492 ± 0.11
18,S53C,-0.514 ± 0.18
19,S53F,-0.882 ± 0.2
20,N55S,0.013 ± 0.051
21,N55W,-0.403 ± 0.083
22,N55T,-0.024 ± 0.074
23,N55H,-0.326 ± 0.14
24,N55I,-0.197 ± 0.13

row,Variant,abundance fitness
1,N55F,-0.396 ± 0.13
2,N55L,-0.121 ± 0.055
3,N55E,-0.184 ± 0.39
4,N55G,-0.009 ± 0.098
5,N55D,-0.009 ± 0.12
6,N55R,-0.055 ± 0.043
7,N55V,-0.013 ± 0.1
8,N55K,-0.016 ± 0.15
9,N55Q,0.073 ± 0.088
10,N55A,0.137 ± 0.086
11,N55M,-0.253 ± 0.15
12,C45M,-0.251 ± 0.33
13,C45W,-0.431 ± 0.11
14,C45S,0.065 ± 0.059
15,C45R,-0.008 ± 0.059
16,C45N,0.091 ± 0.13
17,C45T,-0.161 ± 0.11
18,C45A,0.036 ± 0.071
19,C45I,-0.261 ± 0.15
20,C45Y,0.26 ± 0.39
21,C45K,-0.098 ± 0.14
22,C45F,-0.041 ± 0.19
23,C45G,0.02 ± 0.069
24,C45E,0.156 ± 0.14

row,Variant,abundance fitness
1,C45L,-0.157 ± 0.057
2,C45Q,0.119 ± 0.11
3,C45H,0.039 ± 0.11
4,C45D,-0.135 ± 0.11
5,C45V,-0.004 ± 0.084
6,Q41L,-0.289 ± 0.062
7,Q41G,0.041 ± 0.048
8,Q41D,-0.058 ± 0.098
9,Q41F,-0.335 ± 0.12
10,Q41V,-0.187 ± 0.077
11,Q41S,-0.044 ± 0.061
12,Q41K,0.054 ± 0.15
13,Q41R,-0.061 ± 0.06
14,Q41E,0.111 ± 0.076
15,Q41W,-0.06 ± 0.068
16,Q41I,-0.275 ± 0.14
17,Q41P,-0.046 ± 0.063
18,Q41C,-0.37 ± 0.11
19,Q41H,0.089 ± 0.11
20,Q41T,0.077 ± 0.087
21,R46C,-0.059 ± 0.082
22,R46L,-0.22 ± 0.062
23,R46W,-0.567 ± 0.16
24,R46A,-0.027 ± 0.11

row,Variant,abundance fitness
1,R46V,-0.899 ± 0.22
2,R46K,0.033 ± 0.12
3,R46P,-1.01 ± 0.13
4,R46T,-0.531 ± 0.19
5,R46M,-0.12 ± 0.11
6,R46D,0.094 ± 0.14
7,R46H,-0.118 ± 0.2
8,R46S,0.076 ± 0.045
9,R46Q,0.122 ± 0.095
10,H54E,-0.3 ± 0.34
11,H54Q,0.034 ± 0.06
12,H54T,0.06 ± 0.087
13,H54D,-0.183 ± 0.21
14,H54I,-0.047 ± 0.18
15,H54F,-0.086 ± 0.11
16,H54W,-0.119 ± 0.088
17,H54M,0.005 ± 0.18
18,H54L,-0.042 ± 0.049
19,H54P,-0.079 ± 0.051
20,H54R,0.081 ± 0.047
21,H54N,-0.138 ± 0.1
22,H54S,-0.145 ± 0.068
23,H54G,-0.314 ± 0.064
24,H54A,-0.005 ± 0.065

row,Variant,abundance fitness
1,M57W,-0.374 ± 0.075
2,M57A,-0.306 ± 0.13
3,M57H,-0.547 ± 0.16
4,M57L,-0.157 ± 0.062
5,M57F,-0.428 ± 0.26
6,M57R,-0.904 ± 0.088
7,M57P,-0.924 ± 0.11
8,M57Q,-0.859 ± 0.21
9,M57K,-0.892 ± 0.34
10,M57E,-0.565 ± 0.086
11,M57S,-0.602 ± 0.081
12,M57C,-0.251 ± 0.11
13,M57V,-0.54 ± 0.11
14,M57G,-0.41 ± 0.075
15,M57T,-0.701 ± 0.13
16,L50A,0.005 ± 0.061
17,L50P,-0.867 ± 0.12
18,L50D,-0.196 ± 0.13
19,L50I,-0.361 ± 0.18
20,L50Y,-0.478 ± 0.37
21,L50S,0.012 ± 0.066
22,L50W,-0.791 ± 0.19
23,L50M,-0.003 ± 0.15
24,L50C,-0.029 ± 0.069

row,Variant,abundance fitness
1,L50K,-0.128 ± 0.25
2,L50H,-0.057 ± 0.081
3,L50R,-0.077 ± 0.055
4,L50E,-0.322 ± 0.24
5,L50T,-0.147 ± 0.094
6,L50F,-0.088 ± 0.11
7,L50N,0.161 ± 0.076
8,L50G,0.06 ± 0.046
9,S42E,0.107 ± 0.13
10,S42C,-0.325 ± 0.089
11,S42R,-0.085 ± 0.068
12,S42K,0.068 ± 0.27
13,S42T,-0.054 ± 0.081
14,S42G,-0.11 ± 0.068
15,S42V,-0.113 ± 0.057
16,S42N,-0.28 ± 0.15
17,S42I,-0.272 ± 0.39
18,S42F,-0.494 ± 0.12
19,S42W,-0.359 ± 0.12
20,S42P,-0.381 ± 0.059
21,S42Q,-0.084 ± 0.11
22,S42H,0.085 ± 0.076
23,S42L,-0.152 ± 0.062
